Results from patent publication US20090104657A1 (BASF AKTIENGESELLSCHAFT, published 2009).

Target: the molecule itself
Assay: native polyacrylamide gel electrophoresis; self-association of the subunit

B1: protease according to the invention from Burkholderia glumae PG1, expressed from pETpro in E. coli BL21DE3 as a fusion protein with C-terminal 6xHis-tag (enzyme)
chain: MQQRGGSMSKKIAVLAVDEFEDSELVEPLRALRKAGAEVDVISQQAGEVKGFRHADKGEAVKVDRTFDEVREGEFDALLLPGGLLRGDNRMLPAAREFVTAGKPVFAICHGGWLLGSSGVINGRKLTAWPSLQDDVKNAGGEFYDQEVVRDKDQLITSRKPDDLPAFNREALRLLGAGA
notes: also called putative protease; ThiJ/PfpI protein; not shown: C-terminal 6xHis-tag from vector pET22b
binding result: binds
